Source: US20240343803A1 (SHANDONG SIMCERE BIOPHARMACEUTICAL, published 2024)
Changes are numbered by the printed parent chain.

B1: PVRIG-A50-H1a (Fc fusion)
chain: EVQLVESGGGLVQPGGSLRLSCAASGFTFSYYDMSWVRQAPGKGLEWVSTINSDGGRTSYVDSVKGRFTISRDNSKNTLYLQMNSLRAEDTAVYYCVEGDPHNFGLENLSLRDFGSWGQGTMVTVSS
notes: humanized variant of PVRIG-A50; also called A50.VH1a; not shown: constant part not restated for the humanized forms; parents are VHH-hinge-CH2-CH3 of human IgG1; detected by anti-human
B2: PVRIG-A50-H1c (Fc fusion)
chain: B1 chain with S110A
notes: humanized variant of PVRIG-A50; also called A50.VH1c; not shown: constant part not restated for the humanized forms; parents are VHH-hinge-CH2-CH3 of human IgG1; detected by anti-human
B3: PVRIG-A50-H1e (Fc fusion)
chain: B1 chain with D54N, G55A, N108S
notes: humanized variant of PVRIG-A50; also called VH1e; not shown: constant part not restated for the humanized forms; parents are VHH-hinge-CH2-CH3 of human IgG1; detected by anti-human
B4: PVRIG-A50-H1b (Fc fusion)
chain: B1 chain with N108S
notes: humanized variant of PVRIG-A50; also called A50.VH1b; not shown: constant part not restated for the humanized forms; parents are VHH-hinge-CH2-CH3 of human IgG1; detected by anti-human
B5: PVRIG-A50-H2a (Fc fusion)
chain: B1 chain with D54N, G55A, S75T, N108S
notes: humanized variant of PVRIG-A50; also called A50.VH2a; not shown: constant part not restated for the humanized forms; parents are VHH-hinge-CH2-CH3 of human IgG1; detected by anti-human
B6: PVRIG-A118-H4 (Fc fusion)
chain: EVQLVESGGGLVQPGGSLRLSCAASETYFDLYVMGWYRQAPGKDRELVATITYTGSIKYVDSVKGRFTISRGDAKNSLSLQMNSLRAEDTAVYYCNADPSGLGRKVYWGQGTMVTVSS
notes: humanized variant of PVRIG-A118; also called A118.VH4; not shown: constant part not restated for the humanized forms; parents are VHH-hinge-CH2-CH3 of human IgG1; detected by anti-human
B7: PVRIG-A118-H6 (Fc fusion)
chain: B6 chain with Y59I, S79Y
notes: humanized variant of PVRIG-A118; also called A118.VH6; not shown: constant part not restated for the humanized forms; parents are VHH-hinge-CH2-CH3 of human IgG1; detected by anti-human
B8: PVRIG-A118-H5 (Fc fusion)
chain: B6 chain with L78V, S79Y
notes: humanized variant of PVRIG-A118; also called A118.VH5; not shown: constant part not restated for the humanized forms; parents are VHH-hinge-CH2-CH3 of human IgG1; detected by anti-human
B9: PVRIG-A105-H1 (Fc fusion)
chain: EVQLVESGGGLVQPGGSLRLSCAASGRTFDRHTMSWFRQAPGKEREFVATASRIPGDTYYVDSVKGRFTISRDNAKNSLYLQMNSLRAEDTAVYYCAATSAYCSEVDCYEKGSWYDNWGQGTMVTVSS
notes: humanized variant of PVRIG-A105; also called A105.VH1; not shown: constant part not restated for the humanized forms; parents are VHH-hinge-CH2-CH3 of human IgG1; detected by anti-human
B10: PVRIG-A105-H4 (Fc fusion)
chain: B9 chain with S35T, V61S, D62H
notes: humanized variant of PVRIG-A105; also called A105.VH4; not shown: constant part not restated for the humanized forms; parents are VHH-hinge-CH2-CH3 of human IgG1; detected by anti-human
B11: PVRIG-A105-H3 (Fc fusion)
chain: B9 chain with S35T, L79V
notes: humanized variant of PVRIG-A105; also called A105.VH3; not shown: constant part not restated for the humanized forms; parents are VHH-hinge-CH2-CH3 of human IgG1; detected by anti-human
B12: TIGIT-070-H1L1 (antibody, V domains shown)
VH: EVQLVQSGAEVKKPGASVKVSCKASGYTFTNYYMHWVRQAPGQRLEWMGRIDPDSGGSKYNEKFKSRVTITVDKSASTAYMELSSLRSEDTAVYYCAREGHYGFYSDYWGQGTTVTVSS
VL: DIQMTQSPSSLSASVGDRVTITCRVSENIYSYLAWYQQKPGKSPKLLIYNAKTLAEGVPSRFSGSGSGTDFTLTISSLQPEDFATYYCQHHYGNPLTFGPGTKVDIK
notes: Humanized anti-TIGIT antibody
B13: TIGIT-002-H4L3 (antibody, V domains shown)
VH: EVQLQESGPGLVKPSETLSLTCAVSGYSITSDSWNWIRQPPGKKLEYIGYISYSGNTYYNPSLKSRVTISRDTSKNQFSLKLSSVTAADTAVYYCARLDFSNYGGAVDYWGQGTTVTVSS
VL: DIVMTQSPDSLAVSLGERATINCKASQNVRTAVAWYQQKPGQSPKLMIYSASYRYTGVPDRFSGSGSGTDFTLTISSLQAEDVAVYYCQQYYTTPWTFGGGTKVEIK
notes: Humanized anti-TIGIT antibody
B14: TIGIT-006-H5L3 (antibody, V domains shown)
VH: B13 VH with I29M, S33Y, N56R, L98G, F100Y, V107M, D108Y, Y109D
VL: DIVMTQSPDSLAVSLGERATINCRASQGVSTTIAWYQQKPGQSPKLLIYSASYRYTGVPRFSGSGSGTDFTLTISSLQAEDVAVYYCQQYYSSPFTFGGGTKVEIK
notes: Humanized anti-TIGIT antibody
B15: TIGIT-005-H2L1d (antibody, V domains shown)
VH: EVQLVQSGAEVKKPGASVKVSCKASGYAFTNYLIEWVRQAPGQRLEWMGVINPGSGGTNYKEKFKGRVTITADKSSSTAYMELSSLRSEDTAVYYCARGEYFFFDYWGQGTTVTVSS
VL: B13 VL with N28H, R30S, T31N, Q38H, M47L, Y91H, T93N, W96H
notes: Humanized anti-TIGIT antibody with NG-site mutation in VL

Target: T1, human PVRIG-his (AcroBiosystems, Cat NO. PVG-H52H4) (human, UniProt Q6DKI7 41-171, limits assumed)
T1 construct: also called human PVRIG protein
T1 sequence (looked up): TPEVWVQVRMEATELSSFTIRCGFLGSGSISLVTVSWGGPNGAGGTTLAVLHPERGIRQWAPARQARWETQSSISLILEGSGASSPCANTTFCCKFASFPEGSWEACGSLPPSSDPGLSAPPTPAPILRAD
Assay: ELISA, antigen coated
Method: (§1) The ELISA plate was pre-coated with 100 μL/well of 0.5 μg/mL human PVRIG-his (AcroBiosystems, Cat NO. PVG-H52H4) or cynomolgus monkey PVRIG (Novoprotein, Cat NO. C09B). The tested anti-PVRIG humanized antibodies were serially diluted (initial concentration 3 nM, 3-fold serial dilution), added into the plate (100 μL/well) and incubated with shaking at room temperature for 1.5 hours. […] A HRP substrate, TMB (Thermo, Cat NO. 34029) was added into wells after washing the plate again for color development. After adding a termination solution to terminate the reaction, the absorbance value was read by a microplate reader (MD i3×). An antibody binding curve was drawn with concentration of antibodies as the abscissa and the corresponding OD value as the ordinate. The EC50 value was calculated by using a Four Parameter Logistic Fit (GraphPadPrism9). The smaller the EC50 value, the stronger the ability of the antibodies binds to human or cynomolgus monkey PVRIG. The binding effect of the humanized antibodies was normalized to the corresponding parental antibodies. If the percentage value is higher than 100%, the binding effect of humanized antibodies is better than that of parental antibody.

Binder	% relative activity parental antibody/tested antibody [%]	EC50 [nM]
B1	92.4	0.099
B2	87.3	0.105
B3	116	0.0791
B4	111	0.0819
B5	140	0.0655
B6	95.8	0.0522
B7	90.8	0.0551
B8	104	0.0481
B9	150	0.0487
B10	140	0.0521
B11	125	0.0585

Target: T2, cynomolgus monkey PVRIG (Novoprotein, Cat NO. C09B) (cynomolgus monkey, UniProt A0A2K5WVV8 41-171)
T2 construct: also called cynomolgus monkey PVRIG protein
T2 sequence: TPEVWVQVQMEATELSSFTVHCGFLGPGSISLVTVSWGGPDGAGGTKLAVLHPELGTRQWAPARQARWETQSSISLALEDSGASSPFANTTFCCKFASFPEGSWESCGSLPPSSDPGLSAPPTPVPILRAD
Assay: ELISA, antigen coated
Method: as §1

Binder	% relative activity parental antibody/tested antibody [%]	EC50 [nM]
B1	66.4	0.185
B2	69.5	0.177
B3	89.5	0.138
B4	75.8	0.161
B5	68.3	0.18
B6	37.1	0.0729
B7	48.4	0.0559
B8	40.2	0.0673
B9	107	0.0303
B10	89.4	0.0361
B11	91.7	0.0352

Target: T3, Fusion protein of extracellular domain of cynomolgus monkey TIGIT and mouse IgG2a Fc fragment (cynomolgus … (cynomolgus monkey))
T3 construct: The entry includes the signal peptide (limits not recoverable) and the mouse IgG2a Fc
Assay: ELISA, cynomolgus monkey TIGIT ECD-mFc
Method in brief: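 Plates blocked with 5% skim milk-PBS at 37° C for 2-4 h. Test antibodies applied as a 12-point 3-fold series from 13 nM for 1.5-2 h at 37° C. Read-out: HRP secondary (1:5000, 1 h, 37° C), TMB colour for 7-10 min at room temperature, acid stop, absorbance at OD450 nm.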

T3 sequence (chain, as listed by the source limits assumed): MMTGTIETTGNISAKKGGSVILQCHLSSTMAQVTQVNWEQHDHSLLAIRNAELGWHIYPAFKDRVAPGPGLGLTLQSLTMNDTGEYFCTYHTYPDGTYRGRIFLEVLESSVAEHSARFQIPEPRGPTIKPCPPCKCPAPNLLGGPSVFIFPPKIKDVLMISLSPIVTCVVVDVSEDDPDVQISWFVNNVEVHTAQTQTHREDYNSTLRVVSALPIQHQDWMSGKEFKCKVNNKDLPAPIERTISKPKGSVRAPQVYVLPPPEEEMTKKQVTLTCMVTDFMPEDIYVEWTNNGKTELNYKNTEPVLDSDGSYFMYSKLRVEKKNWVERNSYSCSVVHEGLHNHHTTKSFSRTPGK

Binder	EC50 [nM]
B12	0.0123
B13	0.0189
B14	0.0132
B15	0.0403

Target: T4, Fusion protein of extracellular domain of human TIGIT and human IgG1 Fc fragment (human TIGIT ECD-hFc) (human)
T4 construct: The entry includes the signal peptide (limits not recoverable) and the human IgG1 Fc
Assay: blocking of TIGIT ECD-hFc binding to CHO-K1 CD155 cells
Method in brief: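 The inhibition curves from which IC50 was calculated were generated by cell-based ELISA. Fixed CHO-K1 CD155 cells, blocked with 5% skim milk-PBS, were incubated at 37° C for 1.5-2 h with antibodies that had been premixed for 0.5 h with human TIGIT ECD-hFc at a working concentration of 30 ng/mL. Detection of bound TIGIT used HRP secondary antibody at 1:5000 for 1 h at 37° C, followed by TMB and reading as OD450 nm.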

T4 sequence (chain, as listed by the source limits assumed): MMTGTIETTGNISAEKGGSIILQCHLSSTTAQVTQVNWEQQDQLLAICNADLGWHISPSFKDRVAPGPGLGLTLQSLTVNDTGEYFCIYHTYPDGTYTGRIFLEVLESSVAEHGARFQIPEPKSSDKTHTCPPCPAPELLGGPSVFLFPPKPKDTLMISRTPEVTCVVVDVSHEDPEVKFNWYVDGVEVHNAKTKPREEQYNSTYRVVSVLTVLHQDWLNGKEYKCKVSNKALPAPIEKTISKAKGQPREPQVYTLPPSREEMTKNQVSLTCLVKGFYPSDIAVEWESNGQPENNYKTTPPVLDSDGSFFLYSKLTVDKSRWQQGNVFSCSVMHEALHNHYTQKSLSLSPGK

Binder	IC50 [nM]
B12	0.502
B13	0.354
B14	0.587
B15	0.376

Target: T1, human PVRIG-his (AcroBiosystems, Cat …)
Assay: competition ELISA, PVRIG-His coated, competitor human PVRL2-mFc
Design: AUC: unit not given here
Method: The ELISA plate was pre-coated with 100 μL/well of 0.5 μg/mL human PVRIG-his protein (AcroBiosystems, Cat NO. PVG-H52H4). The tested anti-PVRIG antibodies were diluted from the highest concentration of 16 nM (two-fold concentration). The diluted antibodies were mixed with 18 ng/ml human PVRL2-mFc (AcroBiosystems, Cat NO. CD2-H5257) in equal volume, added into the plate (100 μL/well), and incubated with shaking at room temperature for 2.0 hours. […] A HRP substrate, TMB (Thermo, Cat NO. 34029) was added into wells after washing the plate again for color development. After adding a termination solution to terminate the reaction, the absorbance value was read by a microplate reader (MD i3×). An inhibiting curve was drawn with concentration of antibodies as the abscissa and the corresponding OD value as the ordinate. The IC50 value was calculated by using a Four Parameter Logistic Fit (GraphPadPrism9). The smaller the IC50 value, the stronger the ability of the antibodies inhibits the binding between PVRIG and PVRL2. The positive and negative controls are the same as in Example 8.
The methods refer to Example 11. The inhibiting activity of the humanized antibodies was normalized to the corresponding parental antibodies. If the percentage value is higher than 100%, the inhibiting effect of humanized antibodies is better than that of parental antibodies.

Binder	% relative activity (AUC) parental antibody/test antibody [%]	% relative activity (IC50) parental antibody/test antibody [%]	AUC	IC50 [nM]
B1	82.5	73	2.43	1.06
B2	76.3	65.9	2.62	1.18
B3	86.2	79.5	2.32	0.977
B4	105	125	2	0.847
B5	86.4	85.3	2.32	0.911
B6	112	120	1.42	0.462
B7	108	132	1.47	0.422
B8	114	146	1.39	0.381
B9	112	133	2.27	0.555
B10	109	107	2.32	0.686
B11	101	97.9	2.52	0.752
